Reference: patent US9890407B2, “Method for synthesizing cellulose in vitro” (University of Virginia Patent Foundation, priority 2013, dated 2018)

Columns and labels:
cellulose synthesis [1] = experiment: Cellulose synthesis activity of inverted membrane vesicles / PLs containing BcsA, BcsB or truncated BcsB; assay type: biochemical, Rhodobacter sphaeroides; conditions: for catalytic activity (HMW polymer formation): IMVs, 60 min 37° C., with c-di-GMP
Method: FIG. 1A-1C (also referred to as Example 1, FIG. 1): BcsA and BcsB are necessary for cellulose synthesis. (FIG. 1A) Inverted membrane vesicles containing either BcsA, BcsB, or both subunits were incubated for 60 min at 37° C. in the presence and absence of c-di-GMP and 0.25 μCi UDP-[^3H]-Glc. The synthesized polymer was purified by descending paper chromatography and quantified by scintillation counting. The amount of product obtained is shown relative to the product formed from IMVs containing BcsA and BcsB. Control reactions were performed with IMVs derived from cells containing an empty pET28a vector or in the absence of c-di-GMP or the presence of 20 mM EDTA. Results are shown in light and dark gray for components from Ec and Rs, respectively. (FIG. 1B) immuno-blotting of IMVs containing BcsA and BcsB. BcsA and BcsB were expressed with C-terminal poly-histidine- and FLAG-tags, respectively, and the equivalent amounts of IMVs used for activity assays were analyzed under non-reducing conditions by western blotting. […]
FIG. 6A-6C (also referred to as Example 1, FIG. 6): The membrane-associated domain of BesB is required for cellulose synthesis. […] IMVs containing wild-type BesA and the indicated BesB constructs were tested for cellulose synthase activity by quantifying the accumulation of radioactively labeled cellulose. […] (FIG. 6C) Western analysis of the analyzed IMVs and PLs. […] The equivalent amounts of IMVs used for activity assays were used to quantify the BcsA and BcsB expression levels. Vesicles containing WT and the BcsA-B-S684-r complex were analyzed on separate gels. […]
Gram-negative bacteria transport cellulose across the inner and outer bacterial membranes. […] To identify the complex components required for cellulose synthesis and translocation across the inner bacterial membrane, we expressed BcsA and BcsB from Escherichia coli (Ec) K12 and Rhodobacter sphaeroides (Rs) in E. coli C43 (28), prepared inverted membrane vesicles (IMVs), and analyzed them for cellulose synthesis activity. […]

cellulose synthesis [2] = assay type: biochemical, Rhodobacter sphaeroides

With “BcsA-B-S684: BcsA complexed with BcsB fragment N-terminally truncated to start at Ser684” the “catalytic activity after reconstitution into PLs” value (cellulose synthesis [1]; purified truncated complex in PLs) was “catalytically active”.

B1: BcsB: bacterial cellulose synthase B, periplasmic membrane-anchored subunit (SEQ ID NO:3) (protein)
chain: MDMRLLPFLFLGTLASMAAAQDAPMIVIEGLTSEEPQASPDAVAEAVPAAEVAPWIIPLRPLAETAQVGPLFRLQGQQARAAFRLFLPTEAVGGTLTLAQRSSIDILPESSQIIVRMNDQEIGRFTPRQFGALGAVTMPLGEAVRAGDNLVTIEAQHRHRIYCGADAEFDLWTEVDLSQSGVALPAAAIGTEPTSFIAALTAQAESGRPVEIRTPTPPDEATLRTLAQALGRPLPDEALPLALSKPWSAETGPTYARITLLPSDADRVSIRRGGDGAVVLVLEHPPEGSPNASLVADLLGATPTLPPPTLPQIPPGRVVTLADMGVDTILTDNRYFNRDIDFQLPDDWLLLASQKAQIGIDYGFAGGLPEGALLLVKVNGTTVRMLPLDRDAAPVKPRLDIRFPARLLHPGPNRLSFESVIPGNPPDQPCPASAGDLMQVLSSTDLEVPPSPRMQMADMARDLAQVTPASVHPATPDGLARTLPFMAAFREVPDAAPVDLTVAGLHDIATVPLNEEGLTPRLLALTLLPSTVSRLVERPATPAGPPANALAPLGAAPGEGVMPPLVESNWSDRAQTFVQATLQPVIQTVRRMLRPGDGNLAEWLATRKGTAMLLAPEPGKLWVILGPEAEPARVAEALAMAPRSPGGPRGQVAVLGSDGRWSSWSKPGLLPELREPVSLDNVRSVVGNVASARPPLLLGGMLGLAWISAAIAVGFVLRTRRKGLK
modifications: Rhodobacter sphaeroides
In the case of B1, the “catalytic activity (HMW polymer formation)” value (cellulose synthesis [1]) is reported as “catalytically inactive”.

B2: E371A (protein)
chain: MGTVRAKARSPLRVVPVLLFLLWVALLVPFGLLAAAPVAPSAQGLIALSAVVLVALLKPFADKMVPRFLLLSAASMLVMRYWFWRLFETLPPPALDASFLFALLLFAVETFSISIFFLNGFLSADPTDRPFPRPLQPEELPTVDILVPSYNEPADMLSVTLAAAKNMIYPARLRTVVLCDDGGTDQRCMSPDPELAQKAQERRRELQQLCRELGVVYSTRERNEHAKAGNMSAALERLKGELVVVFDADHVPSRDFLARTVGYFVEDPDLFLVQTPHFFINPDPIQRNLALGDRCPPENEMFYGKIHRGLDRWGGAFFCGSAAVLRRRALDEAGGFAGETITEDAETALEIHSRGWKSLYIDRAMIAGLQPATFASFIQQRGRWATGMMQMLLLKNPLFRRGLGIAQRLCYLNSMSFWFFPLVRMMFLVAPLIYLFFGIEIFVATFEEVLAYMPGYLAVSFLVQNALFARQRWPLVSEVYEVAQAPYLARAIVTTLLRPRSARFAVTAKDETLSENYISPIYRPLLFTFLLCLSGVLATLVRWVAFPGDRSVLLVVGGWAVLNVLLVGFALRAVAEKQQRRAAPRVQMEVPAEAQIPAFGNRSLTATVLDASTSGVRLLVRLPGVGDPHPALEAGGLIQFQPKFPDAPQLERMVRGRIRSARREGGTVMVGVIFEAGQPIAVRETVAYLIFGESAHWRTMREATMRPIGLLHGMARILWMAAASLPKTARDFMDEPARRRRRHEEPKEKQAHLLAFGTDFSTEPDWAGELLDPTAQVSARPNTVAWGSNHHHHHHKLHHHHHH
With B2 the “increase of catalytic activity in the absence of c-di-GMP compared to wild type enzyme” value (cellulose synthesis [2]; no c-di-GMP, IMVs and PLs) was “approximately 6 fold”.

B3: R580A (protein)
chain: MGTVRAKARSPLRVVPVLLFLLWVALLVPFGLLAAAPVAPSAQGLIALSAVVLVALLKPFADKMVPRFLLLSAASMLVMRYWFWRLFETLPPPALDASFLFALLLFAVETFSISIFFLNGFLSADPTDRPFPRPLQPEELPTVDILVPSYNEPADMLSVTLAAAKNMIYPARLRTVVLCDDGGTDQRCMSPDPELAQKAQERRRELQQLCRELGVVYSTRERNEHAKAGNMSAALERLKGELVVVFDADHVPSRDFLARTVGYFVEDPDLFLVQTPHFFINPDPIQRNLALGDRCPPENEMFYGKIHRGLDRWGGAFFCGSAAVLRRRALDEAGGFAGETITEDAETALEIHSRGWKSLYIDRAMIAGLQPETFASFIQQRGRWATGMMQMLLLKNPLFRRGLGIAQRLCYLNSMSFWFFPLVRMMFLVAPLIYLFFGIEIFVATFEEVLAYMPGYLAVSFLVQNALFARQRWPLVSEVYEVAQAPYLARAIVTTLLRPRSARFAVTAKDETLSENYISPIYRPLLFTFLLCLSGVLATLVRWVAFPGDRSVLLVVGGWAVLNVLLVGFALRAVAEKQQRAAAPRVQMEVPAEAQIPAFGNRSLTATVLDASTSGVRLLVRLPGVGDPHPALEAGGLIQFQPKFPDAPQLERMVRGRIRSARREGGTVMVGVIFEAGQPIAVRETVAYLIFGESAHWRTMREATMRPIGLLHGMARILWMAAASLPKTARDFMDEPARRRRRHEEPKEKQAHLLAFGTDFSTEPDWAGELLDPTAQVSARPNTVAWGSNHHHHHHKLHHHHHH
In the case of B3, the “dependence of catalytic activity on c-di-GMP” value (cellulose synthesis [2]; formation of cellulose or UDP, with and without 30 μM c-di-GMP) is reported as “constitutively active”.

B4: BcsA: bacterial cellulose synthase A, catalytic subunit (SEQ ID NO:1) (protein)
chain: MTVRAKARSPLRVVPVLLFLLWVALLVPFGLLAAAPVAPSAQGLIALSAVVLVALLKPFADKMVPRFLLLSAASMLVMRYWFWRLFETLPPPALDASFLFALLLFAVETFSISIFFLNGFLSADPTDRPFPRPLQPEELPTVDILVPSYNEPADMLSVTLAAAKNMIYPARLRTVVLCDDGGTDQRCMSPDPELAQKAQERRRELQQLCRELGVVYSTRERNEHAKAGNMSAALERLKGELVVVFDADHVPSRDFLARTVGYFVEDPDLFLVQTPHFFINPDPIQRNLALGDRCPPENEMFYGKIHRGLDRWGGAFFCGSAAVLRRRALDEAGGFAGETITEDAETALEIHSRGWKSLYIDRAMIAGLQPETFASFIQQRGRWATGMMQMLLLKNPLFRRGLGIAQRLCYLNSMSFWFFPLVRMMFLVAPLIYLFFGIEIFVATFEEVLAYMPGYLAVSFLVQNALFARQRWPLVSEVYEVAQAPYLARAIVTTLLRPRSARFAVTAKDETLSENYISPIYRPLLFTFLLCLSGVLATLVRWVAFPGDRSVLLVVGGWAVLNVLLVGFALRAVAEKQQRRAAPRVQMEVPAEAQIPAFGNRSLTATVLDASTSGVRLLVRLPGVGDPHPALEAGGLIQFQPKFPDAPQLERMVRGRIRSARREGGTVMVGVIFEAGQPIAVRETVAYLIFGESAHWRTMREATMRPIGLLHGMARILWMAAASLPKTARDFMDEPARRRRRHEEPKEKQAHLLAFGTDFSTEPDWAGELLDPTAQVSARPNTVAWGSN
modifications: Rhodobacter sphaeroides
For B4, the “catalytic activity (HMW polymer formation)” value (cellulose synthesis [1]) was “catalytically inactive”.
